Data published in patent US20100260668A1 (published 2010).

What was measured:
VEGF [1] = molecular target: T1, VEGF (UniProt P15692-4 27-191); assay: SPR (Biacore), DVD-Ig captured, VEGF in solution
T1 construct: Bought reagent; also called vascular endothelial growth factor
T1 sequence (P15692 other isoform, or with tags, fused parts or gaps limits assumed): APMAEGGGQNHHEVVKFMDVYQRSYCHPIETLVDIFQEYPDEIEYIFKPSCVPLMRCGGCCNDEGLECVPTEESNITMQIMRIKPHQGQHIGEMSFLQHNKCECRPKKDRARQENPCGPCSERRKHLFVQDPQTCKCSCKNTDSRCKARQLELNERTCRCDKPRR

VEGF [2] = molecular target: T2, VEGF (UniProt P15692-4 27-191); assay: BIACORE SPR
T2 construct: Bought reagent; also called vascular endothelial growth factor
T2 sequence (P15692 other isoform, or with tags, fused parts or gaps limits assumed): as above

Row | Binder | Kd (VEGF [1]) [nM] | koff (VEGF [1]) [s⁻¹] | kon (VEGF [1]) [M⁻¹ s⁻¹] | Kd (VEGF [2]) [nM] | koff (VEGF [2]) [s⁻¹] | kon (VEGF [2]) [M⁻¹ s⁻¹]
1 | DVD502 (bispecific antibody, human IgG1, kappa, DVD-Ig; N-term; VD AB070 (VEGF), C-term; VD AB072 (DLL4); HC linker long, LC linker short; also called DVD502H; DVD502L) heavy: not shown light: DIQMTQSPSSLSASVGDRVTITCRASQDVSTAVAWYQQKPGKAPKLLIYSASFLYSGVPSRFSGSGSGTDFTLTISSLQPEDFATYYCQQSYTTPPTFGQGTKVEIKRTVAAPDIQMTQSSSYLSVSLGGRVTITCKASDHINNWLAWYQQKPGNAPRLLISGATSLETGVPSRFSGSGSGKDYTLSITSLQTEDVATYYCQQYWSIPLTFGAGTKLELKRTVAAPSVFIFPPSDEQLKSGTASVVCLLNNFYPREAKVQWKVDNALQSGNSQESVTEQDSKDSTYSLSSTLTLSKADYEKHKVYACEVTHQGLSSPVTKSFNRGEC | 0.265 | 0.000231 | 871000 |  |  | 
2 | DVD448 (bispecific antibody, human IgG1, kappa, DVD-Ig; N-term; AB014 (VEGF), C-term; AB069 (DLL4); HC linker long, LC linker long; also called DVD448H; DVD448L) heavy: not shown light: DIQMTQSPSSLSASVGDRVTITCSASQDISNYLNWYQQKPGKAPKVLIYFTSSLHSGVPSRFSGSGSGTDFTLTISSLQPEDFATYYCQQYSTVPWTFGQGTKVEIKRTVAAPSVFIFPPDIVMTQSPDSLAVSLGERATISCRASESVDNYGISFMKWFQQKPGQPPKLLIYAASNQGSGVPDRFSGSGSGTDFTLTISSLQAEDVAVYYCQQSKEVPWTFGGGTKVEIKRTVAAPSVFIFPPSDEQLKSGTASVVCLLNNFYPREAKVQWKVDNALQSGNSQESVTEQDSKDSTYSLSSTLTLSKADYEKHKVYACEVTHQGLSSPVTKSFNRGEC |  |  |  | 0.271 | 0.000136 | 504000
3 | DVD460 (bispecific antibody, human IgG1, kappa, DVD-Ig; N-term; AB014 (VEGF), C-term; AB069 (DLL4); HC linker short, LC linker long; also called DVD460H; DVD460L) heavy: not shown light: DIQMTQSPSSLSASVGDRVTITCSASQDISNYLNWYQQKPGKAPKVLIYFTSSLHSGVPSRFSGSGSGTDFTLTISSLQPEDFATYYCQQYSTVPWTFGQGTKVEIKRTVAAPSVFIFPPDIVMTQSPDSLAVSLGERATISCRASESVDNYGISFMKWFQQKPGQPPKLLIYAASNQGSGVPDRFSGSGSGTDFTLTISSLQAEDVAVYYCQQSKEVPWTFGGGTKVEIKRTVAAPSVFIFPPSDEQLKSGTASVVCLLNNFYPREAKVQWKVDNALQSGNSQESVTEQDSKDSTYSLSSTLTLSKADYEKHKVYACEVTHQGLSSPVTKSFNRGEC |  |  |  | 0.174 | 0.000228 | 1.32e+06
4 | DVD488 (bispecific antibody, human IgG1, kappa, DVD-Ig; N-term; AB014 (VEGF), C-term; AB072 (DLL4); HC linker short, LC linker short; also called DVD488H; DBD488L) heavy: not shown light: DIQMTQSPSSLSASVGDRVTITCSASQDISNYLNWYQQKPGKAPKVLIYFTSSLHSGVPSRFSGSGSGTDFTLTISSLQPEDFATYYCQQYSTVPWTFGQGTKVEIKRTVAAPDIQMTQSSSYLSVSLGGRVTITCKASDHINNWLAWYQQKPGNAPRLLISGATSLETGVPSRFSGSGSGKDYTLSITSLQTEDVATYYCQQYWSIPLTFGAGTKLELKRTVAAPSVFIFPPSDEQLKSGTASVVCLLNNFYPREAKVQWKVDNALQSGNSQESVTEQDSKDSTYSLSSTLTLSKADYEKHKVYACEVTHQGLSSPVTKSFNRGEC |  |  |  | 0.536 | 0.000374 | 699000
5 | DVD043 (bispecific antibody, human IgG1, kappa, DVD-Ig; N-term; AB014 (VEGF), C-term; AB015 (DLL4); HC linker short, LC linker short; also called DVD043H; DVD043L) heavy: not shown light: DIQMTQSPSSLSASVGDRVTITCSASQDISNYLNWYQQKPGKAPKVLIYFTSSLHSGVPSRFSGSGSGTDFTLTISSLQPEDFATYYCQQYSTVPWTFGQGTKVEIKRTVAAPDIQMTQSPSSLSASVGDRVTITCRASQDVSTAVAWYQQKPGKAPKLLIYSASFLYSGVPSRFSGSGSGTDFTLTISSLQPEDFATTYYCQQSYTGTVTFGQGTKVEIKRTVAAPSVFIFPPSDEQLKSGTASVVCLLNNFYPREAKVQWKVDNALQSGNSQESVTEQDSKDSTYSLSSTLTLSKADYEKHKVYACEVTHQGLSSPVTKSFNRGEC |  |  |  | 0.0746 | 0.000125 | 1.68e+06
6 | DVD476 (bispecific antibody, human IgG1, kappa, DVD-Ig; N-term; AB014 (VEGF), C-term; AB015 (DLL4); HC linker long, LC linker short; also called DVD476H; DVD476L) heavy: not shown light: DIQMTQSPSSLSASVGDRVTITCSASQDISNYLNWYQQKPGKAPKVLIYFTSSLHSGVPSRFSGSGSGTDFTLTISSLQPEDFATYYCQQYSTVPWTFGQGTKVEIKRTVAAPDIQMTQSPSSLSASVGDRVTITCRASQDVSTAVAWYQQKPGKAPKLLIYSASFLYSGVPSRFSGSGSGTDFTLTISSLQPEDFATTYYCQQSYTGTVTFGQGTKVEIKRTVAAPSVFIFPPSDEQLKSGTASVVCLLNNFYPREAKVQWKVDNALQSGNSQESVTEQDSKDSTYSLSSTLTLSKADYEKHKVYACEVTHQGLSSPVTKSFNRGEC |  |  |  | 0.0281 | 4.74e-05 | 1.69e+06
7 | DVD508 (bispecific antibody, human IgG1, kappa, DVD-Ig; N-term; VD AB070 (VEGF), C-term; VD AB072 (DLL4); HC linker short, LC linker long; also called DVD508H; DVD508L) heavy: not shown light: DIQMTQSPSSLSASVGDRVTITCRASQDVSTAVAWYQQKPGKAPKLLIYSASFLYSGVPSRFSGSGSGTDFTLTISSLQPEDFATYYCQQSYTTPPTFGQGTKVEIKRTVAAPSVFIFPPDIQMTQSSSYLSVSLGGRVTITCKASDHINNWLAWYQQKPGNAPRLLISGATSLETGVPSRFSGSGSGKDYTLSITSLQTEDVATYYCQQYWSIPLTFGAGTKLELKRTVAAPSVFIFPPSDEQLKSGTASVVCLLNNFYPREAKVQWKVDNALQSGNSQESVTEQDSKDSTYSLSSTLTLSKADYEKHKVYACEVTHQGLSSPVTKSFNRGEC | 0.162 | 0.000213 | 1.31e+06 |  |  | 
